Results reported in the supplement of paper PMC10065799, “High-throughput profiling of sequence recognition by tyrosine kinases and SH2 domains using bacterial peptide display” (eLife, 2023).

How the values were obtained:
[1] = system: c-Abl (mouse); experiment: phosphorylation enrichment, bacterial display (enrichment ratio); higher = better substrate or ligand; peptides without Tyr show the background
[2] = target: Fes (UniProt P07332); experiment: as above
[3] = target: EPHB1 (UniProt P54762); experiment: as above
[4] = target: Fyn (UniProt P06241); experiment: as above
[5] = system: Fer (mouse); experiment: as above
[6] = target: Jak2 (UniProt O60674); experiment: as above
[7] = target: MERTK (UniProt Q12866); experiment: as above
[8] = target: EPHB2 (UniProt P29323); experiment: as above
[9] = target: Hck (UniProt P08631); experiment: as above
[10] = target: FGFR3 (UniProt P22607); experiment: as above
[11] = target: FGFR1 (UniProt P11362); experiment: as above
[12] = system: c-Src; experiment: as above
[13] = system: AncSZ; experiment: as above
[14] = target: Grb2 SH2 (UniProt P62993); experiment: SH2 binding enrichment of the phosphorylated peptide, bacterial display (enrichment ratio); higher = better substrate or ligand; peptides without Tyr show the background
[15] = target: SHP2-C SH2; experiment: as above
[16] = target: c-Src SH2; experiment: as above
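For SH2 binding enrichment of the phosphorylated peptide, bacterial display in this document: peptide library displayed on the E. coli surface as eCPX fusions, selected cells deep-sequenced, score is each peptide's frequency after selection divided by its frequency in the input.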
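For phosphorylation enrichment, bacterial display in this document: 11-residue human phosphosite peptides and single-mutation variants displayed on the E. coli surface, counted by deep sequencing, each peptide's frequency after selection divided by its frequency in the unselected input library; frequency after pTyr selection over input frequency; kinase dosed for 20-30% of maximal phosphorylation in three min.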

Sequence of EPHB1 (P54762 whole entry, looked up): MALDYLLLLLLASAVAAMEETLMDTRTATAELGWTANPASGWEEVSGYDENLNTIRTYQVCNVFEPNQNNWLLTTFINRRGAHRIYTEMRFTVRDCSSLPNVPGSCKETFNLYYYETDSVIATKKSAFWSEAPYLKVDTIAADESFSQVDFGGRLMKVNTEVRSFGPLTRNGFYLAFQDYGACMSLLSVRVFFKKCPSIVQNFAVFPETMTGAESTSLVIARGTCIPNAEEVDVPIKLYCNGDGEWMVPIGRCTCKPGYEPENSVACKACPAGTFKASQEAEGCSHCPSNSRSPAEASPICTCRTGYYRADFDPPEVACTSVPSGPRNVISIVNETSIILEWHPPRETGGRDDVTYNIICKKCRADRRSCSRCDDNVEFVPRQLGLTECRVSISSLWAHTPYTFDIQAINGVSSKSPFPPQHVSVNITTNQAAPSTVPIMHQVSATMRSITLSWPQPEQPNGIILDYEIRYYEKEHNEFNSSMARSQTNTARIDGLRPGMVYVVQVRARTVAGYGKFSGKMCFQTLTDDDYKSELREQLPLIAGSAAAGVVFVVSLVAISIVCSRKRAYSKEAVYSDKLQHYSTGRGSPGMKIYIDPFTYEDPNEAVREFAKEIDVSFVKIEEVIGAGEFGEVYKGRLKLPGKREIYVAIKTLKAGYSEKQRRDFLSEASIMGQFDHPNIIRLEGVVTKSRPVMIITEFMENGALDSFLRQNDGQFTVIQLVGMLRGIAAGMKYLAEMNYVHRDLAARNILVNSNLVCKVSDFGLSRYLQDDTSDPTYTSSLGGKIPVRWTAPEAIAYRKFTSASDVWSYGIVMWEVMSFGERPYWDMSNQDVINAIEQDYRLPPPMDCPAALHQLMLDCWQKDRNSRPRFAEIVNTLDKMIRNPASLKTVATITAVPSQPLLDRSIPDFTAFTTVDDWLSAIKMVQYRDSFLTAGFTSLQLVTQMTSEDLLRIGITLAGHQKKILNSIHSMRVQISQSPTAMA
Sequence of Fes (P07332 whole entry, looked up): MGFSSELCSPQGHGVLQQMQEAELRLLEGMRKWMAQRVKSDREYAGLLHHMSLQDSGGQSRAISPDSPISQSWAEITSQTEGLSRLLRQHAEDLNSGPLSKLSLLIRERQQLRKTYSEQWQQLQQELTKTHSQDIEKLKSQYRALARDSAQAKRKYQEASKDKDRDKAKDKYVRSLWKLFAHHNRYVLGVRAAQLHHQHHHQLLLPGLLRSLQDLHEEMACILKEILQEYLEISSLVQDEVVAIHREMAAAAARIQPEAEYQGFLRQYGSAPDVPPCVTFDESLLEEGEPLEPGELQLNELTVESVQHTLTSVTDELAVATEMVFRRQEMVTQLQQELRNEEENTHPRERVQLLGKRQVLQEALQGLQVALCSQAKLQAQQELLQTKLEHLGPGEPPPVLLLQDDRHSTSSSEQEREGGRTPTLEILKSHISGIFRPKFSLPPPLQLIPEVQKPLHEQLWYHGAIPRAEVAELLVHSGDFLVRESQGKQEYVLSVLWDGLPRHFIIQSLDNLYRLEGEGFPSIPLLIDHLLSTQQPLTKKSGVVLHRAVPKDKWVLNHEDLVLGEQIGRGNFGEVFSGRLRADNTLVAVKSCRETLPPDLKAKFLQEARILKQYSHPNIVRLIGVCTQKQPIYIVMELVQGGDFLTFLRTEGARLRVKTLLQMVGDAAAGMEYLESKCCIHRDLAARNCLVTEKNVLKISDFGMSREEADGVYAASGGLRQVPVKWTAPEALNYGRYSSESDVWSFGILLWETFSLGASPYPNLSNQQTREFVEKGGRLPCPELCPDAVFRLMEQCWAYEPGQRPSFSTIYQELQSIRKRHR
Sequence of Fyn (P06241 whole entry, looked up): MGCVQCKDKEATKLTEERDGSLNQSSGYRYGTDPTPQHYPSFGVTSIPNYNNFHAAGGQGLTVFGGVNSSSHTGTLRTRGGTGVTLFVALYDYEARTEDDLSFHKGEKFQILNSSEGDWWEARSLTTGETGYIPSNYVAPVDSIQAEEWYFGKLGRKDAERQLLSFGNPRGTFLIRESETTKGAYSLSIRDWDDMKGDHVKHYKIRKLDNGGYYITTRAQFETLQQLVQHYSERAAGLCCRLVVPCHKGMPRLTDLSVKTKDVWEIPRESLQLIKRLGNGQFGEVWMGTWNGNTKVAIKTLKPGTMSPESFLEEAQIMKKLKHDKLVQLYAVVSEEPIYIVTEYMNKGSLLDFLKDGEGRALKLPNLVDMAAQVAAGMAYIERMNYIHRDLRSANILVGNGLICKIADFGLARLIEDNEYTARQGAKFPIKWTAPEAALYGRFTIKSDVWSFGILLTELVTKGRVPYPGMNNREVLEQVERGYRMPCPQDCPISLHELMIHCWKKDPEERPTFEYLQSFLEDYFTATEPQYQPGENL
Sequence of Grb2 SH2 (P62993 whole entry, looked up): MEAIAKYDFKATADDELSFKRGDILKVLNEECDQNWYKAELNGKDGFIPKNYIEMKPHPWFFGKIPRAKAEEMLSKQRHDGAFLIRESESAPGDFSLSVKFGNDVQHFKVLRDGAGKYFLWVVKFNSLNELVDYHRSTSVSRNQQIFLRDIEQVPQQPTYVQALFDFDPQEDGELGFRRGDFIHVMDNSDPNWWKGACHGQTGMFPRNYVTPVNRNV
Sequence of EPHB2 (P29323 whole entry, looked up): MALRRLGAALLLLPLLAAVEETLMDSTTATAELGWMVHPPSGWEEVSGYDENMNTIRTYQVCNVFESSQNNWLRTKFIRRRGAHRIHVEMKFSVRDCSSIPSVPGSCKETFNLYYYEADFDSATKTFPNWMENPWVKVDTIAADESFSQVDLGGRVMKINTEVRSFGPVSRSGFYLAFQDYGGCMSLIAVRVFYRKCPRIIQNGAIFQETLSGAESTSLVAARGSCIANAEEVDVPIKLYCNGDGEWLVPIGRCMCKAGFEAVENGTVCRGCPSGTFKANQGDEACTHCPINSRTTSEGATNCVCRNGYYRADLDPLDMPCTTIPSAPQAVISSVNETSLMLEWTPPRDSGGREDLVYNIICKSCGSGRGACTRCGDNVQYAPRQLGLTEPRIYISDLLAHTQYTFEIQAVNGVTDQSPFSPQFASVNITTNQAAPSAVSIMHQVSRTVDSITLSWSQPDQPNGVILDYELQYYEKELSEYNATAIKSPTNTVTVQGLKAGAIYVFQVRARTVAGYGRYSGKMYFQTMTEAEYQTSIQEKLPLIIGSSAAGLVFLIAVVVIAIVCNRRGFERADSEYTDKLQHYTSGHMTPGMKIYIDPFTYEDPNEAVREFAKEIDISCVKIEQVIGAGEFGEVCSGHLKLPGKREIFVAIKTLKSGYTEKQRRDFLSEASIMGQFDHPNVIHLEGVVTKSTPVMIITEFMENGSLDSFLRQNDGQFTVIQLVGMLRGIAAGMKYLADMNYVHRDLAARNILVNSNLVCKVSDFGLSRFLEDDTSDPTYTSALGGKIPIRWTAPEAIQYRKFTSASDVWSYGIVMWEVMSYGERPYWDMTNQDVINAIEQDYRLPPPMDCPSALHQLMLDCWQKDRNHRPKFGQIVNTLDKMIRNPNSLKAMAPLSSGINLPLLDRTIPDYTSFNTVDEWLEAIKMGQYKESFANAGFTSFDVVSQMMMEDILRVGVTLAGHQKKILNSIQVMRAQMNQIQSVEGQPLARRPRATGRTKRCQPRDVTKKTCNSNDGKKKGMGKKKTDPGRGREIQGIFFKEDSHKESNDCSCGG
Sequence of FGFR1 (P11362 whole entry, looked up): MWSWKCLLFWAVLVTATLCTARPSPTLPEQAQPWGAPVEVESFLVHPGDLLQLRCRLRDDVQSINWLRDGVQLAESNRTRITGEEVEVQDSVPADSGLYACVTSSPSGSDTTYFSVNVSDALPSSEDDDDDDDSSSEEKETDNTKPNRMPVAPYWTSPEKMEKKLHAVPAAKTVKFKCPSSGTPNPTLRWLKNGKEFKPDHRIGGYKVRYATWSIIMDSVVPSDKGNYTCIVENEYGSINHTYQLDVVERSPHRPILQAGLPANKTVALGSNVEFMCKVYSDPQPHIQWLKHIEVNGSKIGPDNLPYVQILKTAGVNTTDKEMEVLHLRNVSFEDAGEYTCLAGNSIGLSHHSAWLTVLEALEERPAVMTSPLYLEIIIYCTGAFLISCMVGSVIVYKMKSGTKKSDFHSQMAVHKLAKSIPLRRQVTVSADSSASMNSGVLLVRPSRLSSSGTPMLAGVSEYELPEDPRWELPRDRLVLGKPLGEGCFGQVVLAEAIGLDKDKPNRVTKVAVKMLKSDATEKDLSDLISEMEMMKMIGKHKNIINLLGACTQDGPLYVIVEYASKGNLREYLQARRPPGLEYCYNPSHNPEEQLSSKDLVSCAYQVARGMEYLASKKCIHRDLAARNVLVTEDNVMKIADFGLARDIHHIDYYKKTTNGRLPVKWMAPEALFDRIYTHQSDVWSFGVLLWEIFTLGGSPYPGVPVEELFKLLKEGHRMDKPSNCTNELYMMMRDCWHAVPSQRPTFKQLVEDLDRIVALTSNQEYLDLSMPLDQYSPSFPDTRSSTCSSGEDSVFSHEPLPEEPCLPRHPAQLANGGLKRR
Sequence of Hck (P08631 whole entry, looked up): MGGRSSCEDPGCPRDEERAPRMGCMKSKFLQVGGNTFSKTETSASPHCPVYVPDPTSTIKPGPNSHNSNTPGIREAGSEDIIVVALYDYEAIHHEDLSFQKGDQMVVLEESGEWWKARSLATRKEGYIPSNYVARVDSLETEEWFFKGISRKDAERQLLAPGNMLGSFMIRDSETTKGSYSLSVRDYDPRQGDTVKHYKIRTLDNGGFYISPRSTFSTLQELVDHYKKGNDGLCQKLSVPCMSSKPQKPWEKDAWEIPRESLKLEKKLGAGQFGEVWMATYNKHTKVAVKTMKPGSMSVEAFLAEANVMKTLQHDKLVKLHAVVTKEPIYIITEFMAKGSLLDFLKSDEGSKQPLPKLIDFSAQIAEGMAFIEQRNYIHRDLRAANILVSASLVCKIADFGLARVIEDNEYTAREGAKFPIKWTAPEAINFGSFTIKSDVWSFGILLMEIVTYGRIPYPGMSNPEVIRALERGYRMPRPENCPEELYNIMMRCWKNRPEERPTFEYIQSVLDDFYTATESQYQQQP

Sequence	phosphorylation enrichment [1]	phosphorylation enrichment [2]	phosphorylation enrichment [3]	phosphorylation enrichment [4]	phosphorylation enrichment [5]	phosphorylation enrichment [6]	phosphorylation enrichment [7]	phosphorylation enrichment [8]	phosphorylation enrichment [9]	phosphorylation enrichment [10]	phosphorylation enrichment [11]	phosphorylation enrichment [12]	phosphorylation enrichment [13]	SH2 binding enrichment [14]	SH2 binding enrichment [15]	SH2 binding enrichment [16]
SVKVYYKKCWF [EPHA7_Y202_S207F]	0.856	1.14	0.553	0.375	0.433	1.08	0.356	0.531	0.382	0.596	0.432	0.448	1.12	0.712	0.657	0.501
DTKDDYSALSV [IL17RB_Y457_N458S]	0.815	1.09	0.627	0.56	0.642	0.928	0.441	0.663	0.661	0.828	0.715	0.473	1.05	0.956	0.771	0.609
EYLHKYKGFKI [SYNE1_Y6953_Q6951H]	0.996	1.01	0.509	0.461	0.405	1.01	0.453	0.509	0.437	0.57	0.403	0.501	0.903	0.861	0.63	0.527
NALAQYQEMEK [BBS4_Y395]	0.512	0.967	0.466	0.545	0.454	0.714	0.467	0.471	0.612	0.658	0.594	0.366	1.1	0.795	0.808	3.07
KRAIGHYSATS [FAM120A_Y327_Y327H]	0.474	0.498	0.305	0.346	0.356	0.439	0.355	0.286	0.312	0.423	0.319	0.434	0.459	1.12	0.564	0.778
RLKAKYPAATG [GLI3_Y933_A934P]	1.14	0.969	0.708	0.755	0.604	0.905	0.639	0.697	0.787	0.941	0.716	0.818	0.713	1.48	1.25	1.48
NTGNFYDLFGG [PTPN11_Y63_D61N_YF]	0.766	0.955	0.436	6.58	3.08	0.796	7.84	0.548	4.7	0.641	0.537	4.88	0.844	1.19	0.833	0.887
CVAARYMDVKG [WFIKKN2_Y93]	0.56	0.887	0.535	0.419	0.442	0.696	0.435	0.516	0.43	0.549	0.445	0.313	0.655	0.784	0.52	1.16
DFPIGYPSYLA [TBCK_Y153]	0.619	0.902	0.406	0.438	0.582	0.829	0.463	0.457	0.422	0.55	0.481	0.501	0.722	0.9	0.534	0.458
NTPNTYLRVNV [ADD2_Y440]	0.587	0.98	0.412	0.433	0.38	0.908	0.347	0.47	0.428	0.598	0.44	0.436	0.891	0.927	1.29	0.485
LYNQDYPIHSV [GATM_Y227]	0.86	1.23	0.866	1.31	0.732	0.984	0.771	1.03	0.966	1.44	2.26	0.901	1.17	1.02	0.788	0.481
LKALHYMAQTS [SACS_Y3367_V3369A]	0.907	0.94	0.759	0.705	0.746	0.751	0.749	0.634	0.623	0.887	0.765	0.587	0.89	0.861	0.707	0.609
RQSTLYSFFPK [MSH6_Y8]	5.61	1.77	18.4	5.84	4.37	0.685	22.1	18.9	14.6	5.16	6.8	7.83	1.34	1.47	1.19	1.03
DENCFYTRAAS [RPS19_Y54_W52C]	0.675	0.936	0.587	0.569	0.485	0.841	0.461	0.554	0.576	0.728	0.594	0.722	1	0.868	3.23	0.942
CTTIHQNYMCN [TP53_Y234_Y234Q]	0.695	0.917	0.536	0.361	0.387	0.796	0.503	0.432	0.41	0.56	0.463	0.414	0.735	0.923	1.13	0.982
KKGIVYVFNGR [ITGAV_Y404_I405V]	0.443	0.677	0.458	0.477	0.441	0.73	0.48	0.449	0.486	0.538	0.527	0.395	0.756	2.05	1.91	1.32
CKLVDYDSARH [BIN1_Y150_R145C]	0.61	0.909	0.505	0.463	0.401	0.66	0.381	0.447	0.414	0.624	0.395	0.372	0.777	0.845	0.592	0.564

Sequence	phosphorylation enrichment [1]	phosphorylation enrichment [2]	phosphorylation enrichment [3]	phosphorylation enrichment [4]	phosphorylation enrichment [5]	phosphorylation enrichment [6]	phosphorylation enrichment [7]	phosphorylation enrichment [8]	phosphorylation enrichment [9]	phosphorylation enrichment [10]	phosphorylation enrichment [11]	phosphorylation enrichment [12]	phosphorylation enrichment [13]	SH2 binding enrichment [14]	SH2 binding enrichment [15]	SH2 binding enrichment [16]
HEKKAYSFCGT [RPS6KA3_Y226]	0.725	1.8	0.703	1.09	0.989	0.695	0.725	1.18	1.49	1.68	1.51	0.65	1.73	0.999	0.729	0.808
RLCQDYDTIGP [ANK1_Y1073]	0.964	1.44	2.96	0.838	1.05	0.778	0.602	3.94	1.61	0.976	0.541	0.971	1.88	1.35	0.814	1.61
VDSTEYEVASQ [SLC7A7_Y7]	0.825	1.16	0.632	0.499	0.598	1.04	0.436	0.646	0.549	0.776	0.544	0.514	1.25	0.946	0.932	0.545
NTDETYCIDNK [TUBB3_Y200_E205K]	0.834	1.34	0.721	0.781	0.729	1.37	0.407	0.577	0.592	0.783	0.53	0.976	1.23	0.96	0.955	0.572
MFNPYYGLFEY [NEDD4L_Y680]	5.87	2.16	7.89	7.66	7.76	7.13	7.1	9.35	7.23	7.3	8.53	5.76	2.18	1.56	1.64	1.75
LTEHGYSFTTT [ACTB_Y198_R196H]	1.58	1.79	0.862	0.968	0.815	1.61	0.938	0.533	0.342	1.09	0.961	1.09	2.11	0.817	0.883	1.88
KMLEKYKERLN [TLK2_Y259]	1.27	0.789	0.381	0.43	0.444	0.834	0.475	0.5	0.492	0.557	0.46	0.463	0.634	0.838	0.641	0.693
ENAGFYFRISA	1	1.42	0.587	0.44	0.674	1.55	0.36	0.73	0.492	0.844	0.467	0.492	1.32	0.729	0.566	0.669
GFILMYDITNE [RAB3C_Y110]	0.8	1.66	1.06	0.526	0.692	1.38	0.678	1.6	0.633	0.975	0.49	0.559	1.33	1.05	0.962	0.674
MSGDVYSTDYY [NTRK2_Y702_R699G]	0.784	1.16	1.58	4.31	0.863	1.05	6.54	1.99	2.39	2.29	3.16	4.64	1.99	0.778	0.874	0.622
KTKLGYSPLHQ [ANK1_Y735]	0.691	0.48	0.296	0.373	0.354	0.397	0.399	0.326	0.322	0.385	0.31	0.369	0.454	1.2	1.05	0.849
SEKIVYGHVDD [ACO2_Y71_L74V]	0.677	0.805	0.41	0.515	0.466	0.738	0.383	0.469	0.479	0.529	0.471	0.649	0.715	0.903	1.59	0.556
VECQVYAEDPF [PCCA_Y401_R399Q_YF]	0.748	1.24	0.6	0.52	0.663	0.99	0.408	0.548	0.587	1.16	0.446	0.602	1.22	0.764	0.501	0.498
TKFVAYIESQG [KDM4B_Y34_N29T_YF]	0.64	1.02	0.499	0.497	0.403	1.12	0.307	0.56	0.578	0.685	0.51	0.396	0.974	0.736	0.703	0.6
QMQNPYSSHSS [MUC13_Y501_R503S]	0.446	0.659	0.546	1.15	1.26	0.467	0.432	0.718	0.449	0.611	0.636	0.818	0.625	0.921	0.526	0.49
ADLVQYFMEHH [PTPN11_Y80_E76D_YF]	0.8	1.06	0.654	0.784	0.46	1	0.394	0.545	0.53	0.708	0.501	0.517	1.1	0.902	0.961	0.612
